According to patent publication US11433099B2, “Immunotherapy with B*08 restricted peptides and combination of peptides against cancers and related methods” (Immatics Biotechnologies GmbH, priority 2018, dated 2022):

Assays:
[1] = target: HLA-B*44:05 (Homo sapiens, UniProt P01889, A223V/A65T/A93T/A95T/D201E/D98Y/E176V/E187L/E204Q/E69K/G107R/H137Y/K202T/L105A/L119I/N104T/N87E/Q56L/Q94N/R106L/R155S/R180D/S101N/S121R/S35A/S48T/T118I/V36M/W191S/Y91S); experiment: MHC binding assay (UV-ligand exchange, beta2m ELISA); settings: Table 11B, peptide exchange yield
Method in brief: (§1)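 Peptide–HLA complexes generated by UV-ligand exchange of a UV-cleavable peptide for the test peptide; exchange yield read by β2m ELISA on streptavidin capture (samples diluted 100-fold, 1 h 37 °C), HRP anti-β2m, TMB, A450. Quantified against refolded HLA-A*02:01/MLA-001 monomer standards (15-500 ng/ml).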

[2] = target: HLA-A*02:01 (Homo sapiens, UniProt P04439, D140Y/D185E/D98H/E176V/E277Q/G131W/G231S/I119V/I121R/I166T/I218V/L300P/L318F/N151K/N90K/P208A/P217A/Q86G/Q94H/R138H/R169H/T345S); experiment: as above; settings: Table 11C, peptide exchange yield
Method in brief: as §1

Peptide exchange [1]	Peptide exchange [2]	Substance
+++ (≥50% = +++)	–	290 (EEFLTPKKL; listed as Homo sapiens) [compound 290]
–	++++ (≥75% = ++++)	291 (YVYANHFTEA; listed as Homo sapiens) [compound 291]
